Key:
[1] = target: T1, LY75 Region 7 (aa1107-1118) (human); test: peptide microarray; signal above the cut off of 3000
T1 construct: Region made up of overlapping 8mers on the array
T1 peptide: TVKYLNNLYKII

[2] = target: T2, LY75 Region 5 (aa1029-1040) (human); test: as above
T2 construct: Region made up of overlapping 8mers on the array
T2 peptide: RELTYSNFHPLL

[3] = target: T3, LY75 Region 3 (aa761-780) (human); test: as above
T3 construct: Region made up of overlapping 8mers on the array
T3 peptide: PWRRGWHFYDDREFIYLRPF

[4] = target: T4, LY75 Region 6 (aa1077-1093) (human); test: as above
T4 construct: Region made up of overlapping 8mers on the array
T4 peptide: FTSCSERHFVSLCQKYS

[5] = target: T5, LY75 Region 4 (aa883-901) (human); test: as above
T5 construct: Region made up of overlapping 8mers on the array
T5 peptide: DDHFTYSRYPWHRFPVTFG

[6] = target: T6, LY75 (DEC-205) on COLO205 cells (human, UniProt O60449 28-1722); test: competitive FACS on COLO205 cells
T6 construct: also called Lymphocyte antigen 75
Procedure: COLO205 cells (ATCC, catalog # CCL-222) were detached from tissue culture flasks with Cell Stripper (Cellgro, catalog # MT-25-056CI). Cells were washed and resuspended in FACS buffer (PBS+2% FBS), neutralized with growth media, and counted. Cells were plated at 50,000 cells per well in a V Bottom 96-well plate. Cells were washed once with FACS buffer (PBS (Fisher, catalog # SH30028-03)+2% FBS). An anti-LY75-mAb (Selected from Example 1) or LY75_A1 was added to wells starting at 250 nM and diluted serially 3 fold and applied to the relevant wells for 45 minutes on ice. Test wells that required single or multiple staining steps were left in FACS buffer as appropriate to ensure the final staining was completed simultaneously for all conditions tested. Two wells were left unstained in FACS buffer as controls.
After the incubation with blocking antibody, cells were washed twice in FACS buffer. The cells were resuspended in FACS buffer containing the anti-LY75-mAb conjugated to MCC-DM1 (1 nM) and incubated on ice for 45 minutes. The cells were washed as above and resuspended in FACS buffer plus 1 ug/ml mouse anti-maytansine antibody and incubated in ice for 45 minutes. […] Mean fluorescence intensity of each sample was determined using a Guava EasyCyte Plus HT Flow Cytometer (96 well plate formats) and the raw data was analyzed using the Guava Cytosoft.

[7] = target: Contiguous 8mer peptides of LY75 protein spanning residues 216 to 1666 of the full length LY75 protein; test: peptide microarray, 1 ug/mL LY75_A1, anti-human IgG Alexa 647; the peptide is not named
YDDREFIY = target: T7, YDDREFIY; test: peptide microarray of 8mer LY75 peptides, LY75_A1 at 1 µg/mL, anti-human IgG Alexa 647
T7 construct: 8mer of LY75 on the peptide microarray, chart Region 3
T7 peptide: YDDREFIY
Procedure: (§1) The peptide microarray analysis was performed by LC Sciences, Houston Tex., in brief the method comprised the following steps:—Contiguous 8mer peptides of LY75 protein having […] spanning residues 216 to 1666 of the full length LY75 protein were synthesized and immobilized on a microarray chip. The chip comprised three panels such that the experiment was performed in triplicate. The microarray was addressed with LY75_A1 to identify the peptides to which the antibody bound. The binding assay was performed under the following conditions:—
(§2) The microarray comprising the contiguous peptides in triplicate was washed with 1 mL of binding buffer at 4° C. for 20 min. It was then incubated with 1 μg/mL LY75_A1 in binding buffer (pH 7.0) at 4° C. for 2 hrs. The array was again washed with 0.5 mL of washing buffer at 4° C. for 30 min then incubated with 25 ng/mL anti-human IgG Alexa 647 conjugate in binding buffer (pH 7.0) at 4° C. for 1 hr. The array was again washed with 0.5 mL of washing buffer at 4° C. for 30 min.

VKYLNNLY = target: T8, VKYLNNLY; test: as above
T8 construct: 8mer of LY75 on the peptide microarray, chart Region 7
T8 peptide: VKYLNNLY
Procedure: as §1, §2

[8] = target: Contiguous 8mer peptides of LY75 protein spanning residues 216 to 1666 of the full length LY75 protein; test: peptide microarray, 1 ug/mL LY75_A1, anti-human IgG Alexa 647
[9] = target: T9, LY75 tryptic peptide GWHFYDDR (765-772) (human); test: peptide microarray of 8mer LY75 peptides (array peptide with the letters of m17), LY75_A1 at 1 µg/mL, anti-human IgG Alexa 647
T9 construct: Tryptic peptide of recombinant LY75 identified by mass spectrometry after pull down
T9 peptide: GWHFYDDR
Procedure: as §1, §2

WIQYKGHC = target: T10, WIQYKGHC; test: peptide microarray of 8mer LY75 peptides
T10 construct: 8mer of LY75 on the peptide microarray, chart Region 10
T10 peptide: WIQYKGHC

LCQKYSEV = target: T11, LCQKYSEV; test: peptide microarray of 8mer LY75 peptides
T11 construct: 8mer of LY75 on the peptide microarray, chart Region 6
T11 peptide: LCQKYSEV

QKYSEVKS = target: T12, QKYSEVKS; test: peptide microarray of 8mer LY75 peptides
T12 construct: 8mer of LY75 on the peptide microarray, chart Region 6
T12 peptide: QKYSEVKS

CQKYSEVK = target: T13, CQKYSEVK; test: peptide microarray of 8mer LY75 peptides
T13 construct: 8mer of LY75 on the peptide microarray, chart Region 6
T13 peptide: CQKYSEVK

SLCQKYSE = target: T14, SLCQKYSE; test: peptide microarray of 8mer LY75 peptides
T14 construct: 8mer of LY75 on the peptide microarray, chart Region 6
T14 peptide: SLCQKYSE

RHFVSLCQ = target: T15, RHFVSLCQ; test: peptide microarray of 8mer LY75 peptides
T15 construct: 8mer of LY75 on the peptide microarray, chart Region 6
T15 peptide: RHFVSLCQ

IIPKTLTW = target: T16, IIPKTLTW; test: peptide microarray of 8mer LY75 peptides
T16 construct: 8mer of LY75 on the peptide microarray, chart Region 7
T16 peptide: IIPKTLTW

NLYKIIPK = target: T17, NLYKIIPK; test: peptide microarray of 8mer LY75 peptides
T17 construct: 8mer of LY75 on the peptide microarray, chart Region 7
T17 peptide: NLYKIIPK

KIIPKTLT = target: T18, KIIPKTLT; test: peptide microarray of 8mer LY75 peptides
T18 construct: 8mer of LY75 on the peptide microarray, chart Region 7
T18 peptide: KIIPKTLT

PKTLTWHS = target: T19, PKTLTWHS; test: peptide microarray of 8mer LY75 peptides
T19 construct: 8mer of LY75 on the peptide microarray, chart Region 7
T19 peptide: PKTLTWHS

KTLTWHSA = target: T20, KTLTWHSA; test: peptide microarray of 8mer LY75 peptides
T20 construct: 8mer of LY75 on the peptide microarray, chart Region 7
T20 peptide: KTLTWHSA

T6 sequence (O60449 28-1722 limits assumed): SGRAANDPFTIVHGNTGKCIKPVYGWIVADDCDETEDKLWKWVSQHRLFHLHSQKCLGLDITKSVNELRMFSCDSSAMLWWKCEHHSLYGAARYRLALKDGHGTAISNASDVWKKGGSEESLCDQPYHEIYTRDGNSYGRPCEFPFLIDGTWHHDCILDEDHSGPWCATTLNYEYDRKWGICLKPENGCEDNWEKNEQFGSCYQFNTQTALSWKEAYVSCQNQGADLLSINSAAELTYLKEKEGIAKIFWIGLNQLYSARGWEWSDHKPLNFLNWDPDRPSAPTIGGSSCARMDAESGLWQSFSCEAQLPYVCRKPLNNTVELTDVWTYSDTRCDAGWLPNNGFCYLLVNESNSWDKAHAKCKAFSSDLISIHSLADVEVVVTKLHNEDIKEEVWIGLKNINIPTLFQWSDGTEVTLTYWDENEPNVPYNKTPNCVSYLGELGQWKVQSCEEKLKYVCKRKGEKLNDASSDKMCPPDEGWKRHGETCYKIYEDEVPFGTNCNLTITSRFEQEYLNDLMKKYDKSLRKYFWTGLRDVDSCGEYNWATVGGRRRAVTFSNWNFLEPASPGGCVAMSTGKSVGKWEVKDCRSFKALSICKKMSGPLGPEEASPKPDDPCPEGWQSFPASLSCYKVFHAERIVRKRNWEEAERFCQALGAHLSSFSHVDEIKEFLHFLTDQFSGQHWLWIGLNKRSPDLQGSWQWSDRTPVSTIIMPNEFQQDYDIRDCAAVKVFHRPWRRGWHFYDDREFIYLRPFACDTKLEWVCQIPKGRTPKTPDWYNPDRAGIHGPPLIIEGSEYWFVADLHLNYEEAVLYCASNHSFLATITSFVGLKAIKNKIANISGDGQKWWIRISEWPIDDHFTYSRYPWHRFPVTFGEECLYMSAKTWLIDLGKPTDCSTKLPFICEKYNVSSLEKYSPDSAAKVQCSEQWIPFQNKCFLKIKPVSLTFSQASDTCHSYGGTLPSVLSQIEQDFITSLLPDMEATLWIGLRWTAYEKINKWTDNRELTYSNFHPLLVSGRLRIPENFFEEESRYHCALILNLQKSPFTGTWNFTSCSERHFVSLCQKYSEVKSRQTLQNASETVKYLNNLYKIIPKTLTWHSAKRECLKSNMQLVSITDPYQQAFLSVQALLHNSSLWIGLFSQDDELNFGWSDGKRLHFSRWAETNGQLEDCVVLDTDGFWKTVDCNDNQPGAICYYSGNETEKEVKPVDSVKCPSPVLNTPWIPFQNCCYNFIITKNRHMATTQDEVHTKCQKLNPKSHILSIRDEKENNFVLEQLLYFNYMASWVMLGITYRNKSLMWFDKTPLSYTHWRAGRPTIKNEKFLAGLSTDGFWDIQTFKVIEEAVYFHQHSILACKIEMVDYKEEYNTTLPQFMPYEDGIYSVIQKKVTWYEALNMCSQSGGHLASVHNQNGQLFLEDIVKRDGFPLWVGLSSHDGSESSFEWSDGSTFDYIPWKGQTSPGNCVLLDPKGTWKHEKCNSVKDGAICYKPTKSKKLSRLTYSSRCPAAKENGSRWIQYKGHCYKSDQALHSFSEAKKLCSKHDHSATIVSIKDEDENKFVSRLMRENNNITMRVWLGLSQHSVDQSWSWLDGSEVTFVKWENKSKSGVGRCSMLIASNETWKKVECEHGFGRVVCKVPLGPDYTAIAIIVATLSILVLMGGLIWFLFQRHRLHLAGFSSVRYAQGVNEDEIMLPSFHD

B1: LY75_A1 (antibody, V domains shown)
VH: EVQLVESGGGLVKPGGSLRLSCAASGFTYSNAWMSWVRQAPGKGLEWVGRIKSKTDGGTTDYAAPVQGRFTISRDDSKNTLYLQMNSLKTEDTAVYYCTIFGVVSFDYWGQGTLVTVSS
VL: DVQMTQSPSSLSASVGDRVTITCRASQSISDYLSWYQQRPGKAPNLLIYAASNLKTGVPSRFSGSGSGTDFTLTISTLQPEDFATYYCQQSYRSPWTFGQGTKVEIKR
notes: detected with anti-human IgG in the microarray; also called antibody LY75_A1; LY75_A1 monoclonal antibody
binding result [1]: binds | binding result [2]: binds | binding result [3]: binds | binding result [4]: binds | binding result [5]: binds | binding result [6]: binds | maximum signal (signal intensity (scale 1-65535)) [7]: 25000 | binding result (YDDREFIY): binds | binding result (VKYLNNLY): binds | average signal for all spots on the array (signal intensity (scale 1-65535)) [8]: 885 | binding result [9]: binds | binding result (WIQYKGHC): no binding (tested: 1 µg/mL) | binding result (LCQKYSEV): no binding (tested: 1 µg/mL) | binding result (QKYSEVKS): no binding (tested: 1 µg/mL) | binding result (CQKYSEVK): no binding (tested: 1 µg/mL) | binding result (SLCQKYSE): no binding (tested: 1 µg/mL) | binding result (RHFVSLCQ): no binding (tested: 1 µg/mL) | binding result (IIPKTLTW): no binding (tested: 1 µg/mL) | binding result (NLYKIIPK): no binding (tested: 1 µg/mL) | binding result (KIIPKTLT): no binding (tested: 1 µg/mL) | binding result (PKTLTWHS): no binding (tested: 1 µg/mL) | binding result (KTLTWHSA): no binding (tested: 1 µg/mL)

Source: US20200040086A1 (BERLIN CHEMIE, published 2020)
